Results on one molecule are retold here after paper PMC4038462, “PAX6 Regulates Melanogenesis in the Retinal Pigmented Epithelium through Feed-Forward Regulatory Interactions with MITF” (PLoS Genetics, 2014).

This experiment addresses T1, 3xFLAG-MITF (UniProt Q08874 1-526).
T1 sequence (looked up): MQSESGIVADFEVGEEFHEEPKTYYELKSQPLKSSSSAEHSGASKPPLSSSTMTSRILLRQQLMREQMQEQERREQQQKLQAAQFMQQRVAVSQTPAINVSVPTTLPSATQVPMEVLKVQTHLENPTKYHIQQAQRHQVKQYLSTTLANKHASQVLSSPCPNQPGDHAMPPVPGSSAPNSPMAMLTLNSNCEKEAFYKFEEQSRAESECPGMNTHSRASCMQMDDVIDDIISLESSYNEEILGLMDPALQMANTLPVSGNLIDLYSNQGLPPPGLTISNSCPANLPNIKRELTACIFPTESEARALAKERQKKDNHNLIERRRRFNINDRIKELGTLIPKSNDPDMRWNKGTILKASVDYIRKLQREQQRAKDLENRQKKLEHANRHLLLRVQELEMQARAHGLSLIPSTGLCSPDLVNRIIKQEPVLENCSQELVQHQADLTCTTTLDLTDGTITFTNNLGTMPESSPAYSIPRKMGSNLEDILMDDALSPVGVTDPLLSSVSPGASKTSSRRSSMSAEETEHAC
As to the kind of experiment: cell-based or functional assay.

B1: 3xFLAG-PAX6 (natural protein)
chain: not shown
With B1, the “luciferase reporter under the hTyr promoter in HeLa cells, fold change with MITF + PAX6 (MITF alone 12.6 fold)” value is 71.3 fold change; the “luciferase reporter under the mTyrp1 promoter in HeLa cells, fold change with MITF + PAX6 (MITF alone 5.6 fold; PAX6 alone no activation)” value was 51.9 fold change; the “luciferase reporter with four consecutive M-box elements in HeLa cells, fold activity with PAX6 and MITF together (MITF alone 6.6 fold; PAX6 alone none)” value turned out to be 11.9 fold.
